According to publication PMC8191316, “Structural basis for CD97 recognition of the decay-accelerating factor CD55 suggests mechanosensitive activation of adhesion GPCRs” (The Journal of Biological Chemistry, 2021):

B6: CD55 SCR1–4 domains (35–285), His-tagged (domain or fragment)
chain: DCGLPPDVPNAQPALEGRTSFPEDTVITYKCEESFVKIPGEKDSVICLKGSQWSDIEEFCNRSCEVPTRLNSASLKQPYITQNYFPVGTVVEYECRPGYRREPSLSPKLTCLQNLKWSTAVEFCKKKSCPNPGEIRNGQIDVPGGILFGATISFSCNTGYKLFGSTSSFCLISGSSVQWSDPLPECREIYCPAPPQIDNGIIQGERDHYGYRQSVTYACNKGFTMIGEHSIYCTVNNDEGEWSGPPPECRG

Tests used:
[1] = target: CD55 SCR1–4 domains (35–285), His-tagged (human) (UniProt P08174); assay: SPR; Biacore T200; His-tagged CD55 immobilized on nickel coated NTA chip; CD97 (WT, mutants) or EMR2 without His-tag injected at 50 μl/min for 2 min; 20 mM Tris, pH 7.5, 200 mM NaCl, 2 mM CaCl2, 0.05% Tween 20
[2] = target: B6; assay: SPR
[3] = target: T1, CD55 SCR1–4 domains (35–285), His-tagged (human, UniProt P08174 35-285); assay: SPR; Biacore T200; His-tagged CD55 immobilized on nickel coated NTA chip; CD97 (WT, mutants) or EMR2 without His-tag injected at 50 μl/min for 2 min; 20 mM Tris, pH 7.5, 200 mM NaCl, 2 mM CaCl2, 0.05% Tween 20; conditions: both partners purified
T1 construct: CD55 (complement decay-accelerating factor), human, UniProt P08174, SCR1–4 domains, residues 35–285; Vector pLEXm with N-terminal signal peptide; codon-optimized gene; In the crystal and SAXS rows it stood as the C-terminal part of the chimera m9; also called decay-accelerating factor; not shown: His6, C-terminal, kept
T1 sequence (looked up): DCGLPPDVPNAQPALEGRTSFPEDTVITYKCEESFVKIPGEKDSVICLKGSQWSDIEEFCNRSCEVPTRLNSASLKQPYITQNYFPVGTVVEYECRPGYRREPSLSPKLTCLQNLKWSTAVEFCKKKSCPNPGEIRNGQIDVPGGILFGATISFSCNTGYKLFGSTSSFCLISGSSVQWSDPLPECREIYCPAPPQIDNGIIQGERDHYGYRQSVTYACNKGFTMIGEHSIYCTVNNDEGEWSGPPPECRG

[4] = target: T2, CD97 EGF_(1,2,5) fragment D63L, without His-tag (human, UniProt P48960-2 21-165, D63L); assay: SPR
T2 sequence: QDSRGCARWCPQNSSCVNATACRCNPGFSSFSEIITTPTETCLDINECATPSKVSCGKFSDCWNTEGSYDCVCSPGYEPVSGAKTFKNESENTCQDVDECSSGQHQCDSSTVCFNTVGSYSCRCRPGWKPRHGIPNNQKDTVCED

[5] = target: T3, CD97 EGF_(1,2,5) fragment E86A, without His-tag (human, UniProt P48960-2 21-165, E86A); assay: SPR
T3 sequence: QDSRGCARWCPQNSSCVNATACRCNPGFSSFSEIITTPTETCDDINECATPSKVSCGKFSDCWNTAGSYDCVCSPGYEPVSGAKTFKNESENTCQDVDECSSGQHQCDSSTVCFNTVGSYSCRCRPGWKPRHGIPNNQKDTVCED

[6] = target: T4, CD97 EGF_(1,2,5) fragment D81A, without His-tag (human, UniProt P48960-2 21-165, D81A); assay: SPR
T4 sequence: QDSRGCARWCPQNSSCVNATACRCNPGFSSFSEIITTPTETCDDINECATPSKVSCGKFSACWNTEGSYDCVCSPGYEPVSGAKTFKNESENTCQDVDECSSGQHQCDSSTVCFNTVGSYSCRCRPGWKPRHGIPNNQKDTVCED

[7] = target: T5, CD97 EGF_(1,2,5) fragment V137A, without His-tag (human, UniProt P48960-2 21-165, V137A); assay: SPR
T5 sequence: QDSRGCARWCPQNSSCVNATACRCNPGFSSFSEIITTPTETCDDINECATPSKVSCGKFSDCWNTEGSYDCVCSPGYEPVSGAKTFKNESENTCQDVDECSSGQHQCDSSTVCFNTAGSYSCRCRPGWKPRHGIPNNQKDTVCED

CD97 EGF_(1,2,5) fragment, WT, without His-tag (SPR construct with TEV site) (from UniProt P48960-2 21-165) (domain or fragment)
Kd [1]: 3.2 µM
koff [1]: 0.00173 s⁻¹
kon [1]: 546 M⁻¹ s⁻¹

B1: EMR2 EGF_(1,2,5) (24–168) fragment, His6 removed (domain or fragment)
chain: QDSRGCARWCPQDSSCVNATACRCNPGFSSFSEIITTPMETCDDINECATLSKVSCGKFSDCWNTEGSYDCVCSPGYEPVSGAKTFKNESENTCQDVDECSSGQHQCDSSTVCFNTVGSYSCRCRPGWKPRHGIPNNQKDTVCED
Kd [1]: 43 µM
koff [2]: 0.00149 s⁻¹

B2: CD97 EGF_(1,2,5) fragment D63L, without His-tag (domain or fragment, human, UniProt P48960-2 21-165, looked up)
chain: QDSRGCARWCPQNSSCVNATACRCNPGFSSFSEIITTPTETCLDINECATPSKVSCGKFSDCWNTEGSYDCVCSPGYEPVSGAKTFKNESENTCQDVDECSSGQHQCDSSTVCFNTVGSYSCRCRPGWKPRHGIPNNQKDTVCED
notes: CD97, human, EGF_(1,2,5) isoform fragment, residues 21–165, with D63L; Made by overlapping PCR, cloned to the same vector as m3; not shown: His6, C-terminal, cleaved
Kd [3]: 85.2 µM

B3: CD97 EGF_(1,2,5) fragment E86A, without His-tag (domain or fragment, human, UniProt P48960-2 21-165, looked up)
chain: QDSRGCARWCPQNSSCVNATACRCNPGFSSFSEIITTPTETCDDINECATPSKVSCGKFSDCWNTAGSYDCVCSPGYEPVSGAKTFKNESENTCQDVDECSSGQHQCDSSTVCFNTVGSYSCRCRPGWKPRHGIPNNQKDTVCED
notes: CD97, human, EGF_(1,2,5) isoform fragment, residues 21–165, with E86A; Made by overlapping PCR, cloned to the same vector as m3; not shown: His6, C-terminal, cleaved
Kd [3]: 17.6 µM

B4: CD97 EGF_(1,2,5) fragment V137A, without His-tag (domain or fragment, human, UniProt P48960-2 21-165, looked up)
chain: QDSRGCARWCPQNSSCVNATACRCNPGFSSFSEIITTPTETCDDINECATPSKVSCGKFSDCWNTEGSYDCVCSPGYEPVSGAKTFKNESENTCQDVDECSSGQHQCDSSTVCFNTAGSYSCRCRPGWKPRHGIPNNQKDTVCED
notes: CD97, human, EGF_(1,2,5) isoform fragment, residues 21–165, with V137A (in EGF5); Made by overlapping PCR, cloned to the same vector as m3; also called V137A mutant; not shown: His6, C-terminal, cleaved
Kd [3]: 25.3 µM

B5: CD97 EGF_(1,2,5) fragment D81A, without His-tag (domain or fragment, human, UniProt P48960-2 21-165, looked up)
chain: QDSRGCARWCPQNSSCVNATACRCNPGFSSFSEIITTPTETCDDINECATPSKVSCGKFSACWNTEGSYDCVCSPGYEPVSGAKTFKNESENTCQDVDECSSGQHQCDSSTVCFNTVGSYSCRCRPGWKPRHGIPNNQKDTVCED
notes: CD97, human, EGF_(1,2,5) isoform fragment, residues 21–165, with D81A; Made by overlapping PCR, cloned to the same vector as m3; not shown: His6, C-terminal, cleaved
Kd [3]: 66.4 µM

B6
koff [4]: 0.000968 s⁻¹
koff [5]: 0.00141 s⁻¹
koff [6]: 0.00122 s⁻¹
koff [7]: 0.00163 s⁻¹
